Experimental data: a protein production outcome set (Wang et al. 2014)

Assay: label from the status in PepcDB records
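Further: failed if final PepcDB status was selected cloned or expressed and not failed if soluble or beyond.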

Question: With “MKYLCLIYFDEAKLAAVPAEELAAIVDECMTYSDQLGKAGHYIASHALQSVQTATTLRHQGGRLAMTDGPFAETKEQLGGFYLIEARDLNQALQIAAKIPPGRLGCVEVRPVKEWE” as the sequence, how does the protein production read?
Answer: not failed

Question: Which protein production does the source give for “MKYLLLPVVVLLAGCQSLSQSDGNAITDNSDSQVETAHPVEINQALLADESIDVIHPVADVDFSLNNTLKDQKAIDENNIWPRIRSQLTFDIPNQKRLVSQRNWYVKHPSYLKRVAKRAEPFLYYIVQELEKNDMPIELAFLPIVESAFDPFAYSHGRASGMWQFVPGTGERFGMKQNWWYDGRRDVVASTEGAIKYLKYLHKFFDGDWMLALAAYNSGEGRVRNAVRKNKRLGKPTDFWSLDLPKETRAYVPKLLALADIVKRPEDFNLSLYSIDNKSVLSQVDIKSQLDLAKAATLAGLSLAELQRLNPGFNRWATDPDGPHRLLLPSHTVEKFELGLSKLSKKDRLAWQRYKIKSGDNLGLIANKFNTRVDLIQQVNNIKGNQIRAGKHLLIPVAAKSLDSYVFSQEQRIAKKQNRPQKGRKLVHTVKSGDNLWDIGRKYKVNSKSIAKWNGFAPRDTLKLGQKLVIWQKSDTKSNKSNFANSKTGNNVENAIMRNITYKVRRGDSFARIADKFNVRISDIERWNNLDRKKYLQPGQRLKLSVDVTNNI” here?
Answer: failed

Question: For “MLAAWLGCVLPAGAGLPVETLRVPPGFRVELLTEAMPSAREMALSPAGILYVGSRTGKVYALPLQVPGATVRVVASGLEQPVGVAWRDGSLYVSAVSRVVRLDRIDSRLDDPPVPVVVSDRFPTETHHGWKFIAFGPDGKLYVPVGAPCNVCHRDEDRYANLMRMNADGSSLEVVARGIRNTVGFDWHPVTHELWFTDNGADMMGDDVPDDELNRITAPGQHFGYPFCHAGDVPDPEFGAGHPCSRYVPPVGKLGAHVAALGMRFYTGSNFPQAYRHNLFIAEHGSWNRSSKVGYRVVRVVLDAAGKVVRQEPFVEGWLRGERAWGRPVDVLVAPDGSLLVSDDYAGAVYRVRYTGKLEHHHHHH”, which protein production is on record?
Answer: failed

Question: With “MLAILYDRIRPDERMLFERAEALGLPYKKVYVPALPMVLGERPKELEGVTVALERCVSQSRGLAAARYLTALGIPVVNRPEVIEACGDKWATSVALAKAGLPQPKTALATDREEALRLMEAFGYPVVLKPVIGSWGRLLAKVTDRAAAEALLEHKEVLGGFQHQLFYIQEYVEKPGRDIRVFVVGERAIAAIYRRSAHWITNTARGGQAENCPLTEEVARLSVKAAEAVGGGVVAVDLFESERGLLVNEVNHTMEFKNSVHTTGVDIPGEILKYAWSLAS” as the sequence, how does the protein production read?
Answer: not failed

Question: For “MLANQIKYVILHLTQSIIEYSMANLNCIKAVLAEKGIMSKWLAKTLKKDPATVSKWCNNHSQPDLYTLARIAEVLDVDIHKLICHTKEE”, which protein production is on record?
Answer: failed

Question: With “MLAPGMGEWVYKANLFLFGEFAYYYPFFLFILNYVYYKRNYKLANFTRRELFGIGFAFFSSLLLFAVFYPNSGYILELAYAIFSTILGHTGSGIFALLLLLFSLVLLFPKFAKEILKIELDFTYLLKVEQAFKSLLMRVFGGENEKEDVGKSEPIVPKLNILQDSIYGNLQINKKGETNNLEQIIKDSNINASKNSITTAKENFEKLKNQILDETIEIDKQSLKESRSFVHEHSQQVRNFAQKASKMSISLDEDFNFISEEEVDMIPERFLKPKKLEDIKQIDTNKNLDEPSYKRKNIEIPVSNQEVKPKIFTKELELRENLIKKEKLEQEYKAYQNEILENKVKQEIKKLEEYDAINSSDIIEGNKYSFNSPKTIKTETEESDKINENKNLDKADNIFEFAPIVEELNHPYIEPTPIKNINEIVIEEKNTLDFIQNTETKIDNEKTNDQEIKLQKAVLAKEIAINQALLREIEQGEIEKPKDFTLPPLDFLANPKEHKQEINESEIDKKIYNLLEKLRRFKIGGDVISTYVGPVVTTFEFRPSADVKVSRILNLQDDLTMALMAKSIRIQAPIPGKDVVGIEVPNDEIQTIYLREILQSEVFKNAKSPLTIALGKDIVGNAFVTDLKKLPHLLIAGTTGSGKSVGINSMLLSLLYRNSPKTLRLMMIDPKMLEFSIYNDIPHLLTPVITDPKKAVNALSNMVAEMERRYRLMADAKTKNIENYNEKMKELGGEKLPFIVVIIDELADLMMTAGKDVEFYIGRLAQMARASGIHLIVATQRPSVDVVTGLIKANLPSRISYKVGQKIDSKVILDAMGAESLLGRGDCLFTPPGTSSIVRLHAPFASEFEIEKIVDFLKDQQSVEYDESFLKDQQSVGVTTNESFDGEADELYEEAKRVILEDGKTSISYLQRRLKIGYNRSANIIEQLTQNGILSEPDAKGQREIL” as the sequence, how does the protein production read?
Answer: failed

Question: Which protein production does the source give for “MLARVRRVLALILIVLAGLVALLSPAFPALSHYGTLPRHGDKPLNVLLAGVDVNYDEQAPVWPYPAQPEDYSGRTDTIVLTQVRPDGTVKLLSIPRDSWVPIAGWSGGWGKINSANVHGGPDMLLNTVQALTGVHPDGYALLSLNALRAVTEAVGGVTIDVPQRMKYDDNAGHLHIDLQPGRQRLSGEQAEGFLRFRKDNMGDIGRVGRQQQFLTALIAEIRRPANVWKLPKVIAALDANAKTNLTRAQIAELLGAAQRGPQVSTFTVPGNFGMVGAASVWNVDTPRLDALLAEQFRDPGDPHGLRVLVLNADAPDGSARRLKAKLEALGYHNVSTANEQKPWPVTTVSGPATPAAALLRDLGYGQLDNAPSLPGSELTIRLGRDTPAQ” here?
Answer: failed

Question: For “MLAVGIVGLPNVGKSTLFNALTRANALAANYPFATIDKNVGVVPLEDERLYALQRTFAKGERVPPVVPTHVEFVDIAGLVKGAHKGEGLGNQFLAHIREVAAIAHVLRCFPDPDVVHVMGRVDPLEDAEVVETELLLADLATLERRLERLRKEARADRERLPLLEAAEGLYVHLQEGKPARTFPPSEAVARFLKETPLLTAKPVIYVANVAEEDLPDGRGNPQVEAVRRKALEEGAEVVVVSARLEAELAELSGEEARELLAAYGLQESGLQRLARAGYRALDLLTFFTAGEKEVRAWTVRRGTKAPRAAGEIHSDMERGFIRAEVIPWDKLVEAGGWARAKERGWVRLEGKDYEVQDGDVIYVLFNA”, which protein production is on record?
Answer: not failed

Question: For “MLAVSFIAGVILIGLYGVDSSERYIAVSELLANPQDYSGQNINAMGVVEDRSLHKDPGVTSFDLKDENDENLKIHVNYVGNLPSNLAEGKQVTIRGSMISESTFEANKIVTGCPSKYTELEHHHHHH”, which protein production is on record?
Answer: failed

Question: For “MLCARTDNHQGTGNVVTSAHMTRANDDDAGAAGIGAVAHMTTVDDNYTGHVERGKAARRFLPGATILKASVGPMDNNAYLVTCSATGETLLIDAANDAEVLIDLVRRYAPKLALIVTSHQHFDHWQALQAVAAATGAPTAAHPIDADPLPVKPDRLLTHGDSVRIGELTFDVIHLRGHTPGSIALALGGPVTGGVTQLFTGDCLFPGGVGKTWQPADFTQLLDDVTTRVFDVYADSTVIYPGHGDDTELGAERPSLSEWRARGW”, which protein production is on record?
Answer: failed

Question: For “MLCCMRRTKQVEKNDDDQKIEQDGIKPEDKAHKAATKIQASFRGHITRKKLKGEKKDDVQAAEAEANKKDEAPVADGVEKKGEGTTTAEAAPATGSKPDEPGKAGETPSEEKKGEGDAATEQAAPQAPASSEEKAGSAETESATKASTDNSPSSKAEDAPAKEEPKQADVPAAVTAAAATTPAAEDAAAKATAQPPTETGESSQAEENIEAVDETKPKESARQDEGKEEEPEADQEHA”, which protein production is on record?
Answer: failed

Question: Which protein production does the source give for “MLCCPDPRRRGQHNNRRRNAMPKLHESRIHDLRPTQLTVGMIEVQAKKTHLAAMAPADQQAFMQAHPIPAVLGPGGQLYITDHHHLGRAALDAGVITGYFMVEADLSQHSLDDFWKAMDQNLWVHPLDEHGVRHYYASIPKHLEKLVDDPYRSLAGYVRDAGGYDKTPTAFAEFVWADFFRRSIPIEDLLADFQAAVHAALPLAKSKFAKALPGYNGKLEHHHHHH” here?
Answer: failed

Question: Which protein production does the source give for “MLDANKLQQAVDQAYTQFHSLNGGQNADYIPFLANVPGQLAAVAIVTCDGNVYSAGDSDYRFALESISKVCTLALALEDVGPQAVQDKIGADPTGLPFNSVIALELHGGKPLSPLVNAGAIATTSLINAENVEQRWQRILHIQQQLAGEQVALSDEVNQSEQTTNFHNRAIAWLLYSAGYLYCDAMEACDVYTRQCSTLLNTIELATLGATLAAGGVNPLTHKRVLQADNVPYILAEMMMEGLYGRSGDWAYRVGLPGKSGVGGGILAVVPGVMGIAAFSPPLDEDGNSVRGQKMVASVAKQLGYNVFKG” here?
Answer: not failed

Question: With “MLDGWQEIEADQIKRMQSALWHLLGNAIAYLSLFVIELVLATIGHSQSLHADAFNNFAGIVSSGLLSLGIWGGIHNHQSHQSKVTALDGWEAERRNRLMRFRLQDLFTLMSGVIMLVMAVQVIVSGVSNLFKSHTVQAVSGVTVWGAAIASIVMLVVWYFNRRGGQQLDNSTLLAAAKDSLSDALTSIGTLISLSGVLLFKFAWLDSVASIVIGFFIFAAGLQIFRDSGLQLINYSDPQVEKNYINTIQQIDGVNQVNAIDVQYSGSLVALSLVIAVSPRMTVAASFQLSERIEQVMRNQYGIIDTKVMFMPQT” as the sequence, how does the protein production read?
Answer: failed
